From PMC6675122, “N-terminal β-strand underpins biochemical specialization of an ATG8 isoform” (PLoS Biology, 2019)
Entries after “also recorded” stand apart in the source; their conditions may differ.

System: ATG8
Assay: in planta Co-IP, Vps4 with ATG8 (ATG8-2.2, ATG8-4, ATG8-4-S3)
Format: binding, Solanum tuberosum

B1: Vps4: potato vacuolar protein sorting 4; known as SKD1 in A. thaliana; ESCRT function (protein)
chain: MYSNFKEQAIEFVRQAVQEDNGGNYAKAFPLYMNALEYFKTHLKYEKNPKIKEAITQKFTEYLRRAEEIRAVLDEGGSGPGPNGGDAAVMAKPKTKPKDGEDGEDPEQSKLRAGLNSAIVREKPNVKWNDVAGLESAKQALQEAVILPVKFPQFFTGKRRPWRAFLLYGPPGTGKSYLAKAVATEAESTFFSVSSSDLVSKWMGESEKLVSNLFQMARESAPSIIFVDEIDSLCGQRGEGNESEASRRIKTELLVQMQGVGHNDDKVLVLAATNTPYALDQAIRRRFDKRIYIPLPDLKARQHMFKVHLGDTPHNLSESDFEDLARKTEGFSGSDVSVCVKDVLFEPVRKTQDAVFFTQTSNGTWIPCGPKQQGAVQTTMQELDAKGLASQIIPPPITKTDFDKVLARQRPTVSKSDLEVHDRFTKEFGEEG
- dependence of Vps4 binding on the ATG8 first β-strand (Co-IP, ATG8-2.2, ATG8-4 and ATG8-4-S3): the role of the N-terminal β-strand region in conferring binding to AIM-containing proteins was confirmed; also recorded: The ATG8 region surrounding the first β-strand is responsible for discriminatory binding to potato Vps4
- interaction of Vps4 with ATG8 (Vps4:3xMyc co-expressed with GFP:ATG8 in N. benthamiana, anti-GFP IP, immunoblot): direct interaction between Vps4 and ATG8
